Results on one substance are retold here after paper PMC8464078.

Test [1] addresses Xenopus Rif1–CTD S2058A (Xenopus). The experiment in a line: pull-down.
Test [2] concerns the target Xenopus Rif1–CTD S2058D (Xenopus). Put plainly: pull-down.

In the case of “protein phosphatase 1 (PP1), gamma catalytic subunit (from UniProt P36874 1-323) (enzyme)”, the PP1 bound, percent of wild type Rif1–CTD is 54% in test [1] and 9% in test [2].
